Test results published in the supplement of paper PMC12042874.
± gives the uncertainty stated by the source.

Assay: amyloid nucleation score (Sup35N fusion, yeast selection) (log enrichment); library NNK2; higher = more nucleation; inactive = no reads after selection
Procedure, shortened: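 Plasmid inserts were Illumina-sequenced at input and output from psi-negative yeast expressing Sup35N fused to peptides of 20 random codons. The yeast were induced with 100 μM copper sulfate for 24 hours and grown 7 days at 30°C on medium lacking adenine and uracil, and sequences with under 100 input reads were excluded. Nucleation score is the DiMSum log enrichment of output over input reads, centred on the mode score of non-aggregating sequences.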

Substance | amyloid nucleation score
SFCVALFSWSVYVTIRVHYR | -0.545 ± 0.79
AWDRDVNDENLVSIYMCRKL | -0.233 ± 0.32
CRRSNFNYQGVLGYWHRFAG | -0.755 ± 1.1
CCSFNLISLYSKVRARSELP | 8.765 ± 0.029
ADPSDVFMVVVLGSCRAFTV | 1.63 ± 0.47
RTGRPSHDFRYGKQRFMVRP | 0.736 ± 0.74
FWYSCR | -0.889 ± 0.41
LTGCAKLGSLKLSLAPVYVD | 0.811 ± 0.82
LLSVASRLLVPFRERGNGS | -0.256 ± 1.1
RARLKTMRPGSCSRARGWCG | 0.883 ± 0.33
QFSCRCN | 0.011 ± 0.79
EFMYKQCRYIVTPYGLVVSR | -0.557 ± 1.1
FNGLSSFSFMLIGTGFDISC | -0.934 ± 0.64
SSQSRSISYGLGNCWSWWL | 2.71 ± 0.081
YSSTTITFYNWDRVTSRRLA | -0.832 ± 0.44
YMWVCACRMSLIHGLSGHHD | 0.536 ± 0.46
KMHCGFDFEWVTTYNTTIVR | -0.369 ± 0.47
FFDYIGRYYNLKH | inactive
VVGFSMFYKWDMNSMVSRMS | 2.27 ± 0.084
NCFYALYPSQDWRMTKLELS | -0.106 ± 0.23
SSVMPAVIAFACCCNKSTFA | -0.237 ± 0.38
LKRRPFDAFNVRMVLVNECG | inactive

Substance | amyloid nucleation score
DVQGWFVITSGFADGSQARR | 1.19 ± 0.17
DIVIYWV | -0.139 ± 0.63
RGALALLVRDAMFFCSLSGF | 4.41 ± 0.1
YCRMYSRNVDGVWHTISKLD | 0.108 ± 0.42
LVSFRKPILTSQ | 0.164 ± 0.8
RMVRGLAFGDFWASSMRKYP | 0.241 ± 0.33
GSELMTSLSFVCGHVAAPAD | 0.669 ± 0.54
VDILGMGRNHM | -1.04 ± 0.78
NQTCTE | 0.7 ± 0.66
LLFLAG | -0.358 ± 0.79
ICWRHTGIICKAGSNRSH | inactive
LMFMLRYPLHASWLGSTHVY | 0.422 ± 0.44
IWGGFYS | -1.29 ± 0.75
NVIMMDLWVDLAFKSLGYG | 6.291 ± 0.046
ISTMSGPFVSRLWYSAYNTA | -0.345 ± 0.64
TLVSWYSTTEPAC | -1.13 ± 0.78
FKTVCVGKCLVFMVTDAELI | -1.49 ± 0.76
GSEMIFYIAVVALCLCIPEG | 1.21 ± 0.22
DGRADFYSCVCLYYSWNGY | 3.62 ± 0.037
TFLTLA | 0.979 ± 0.4
AMYINWSLFVKLSRRMRYQR | inactive
AVCWYNVQVRSSRNLYGQPK | 0.221 ± 0.5

Substance | amyloid nucleation score
SGCTGFCRRGPVRCWGSCLL | inactive
HSNLVT | 0.234 ± 0.41
DRARMYYYSEIHSVVTSIIK | inactive
DIGSMYEMLCRVVTIVLPRS | -0.723 ± 1.1
DTRLIGECQLGSGVTVLSLG | 0.252 ± 0.27
SRDAKRALFDLDHRTRWDHK | 4.62 ± 0.079
GNRDSLNMFVCDRILRCPVQ | -0.273 ± 0.33
TTILEL | -0.305 ± 0.79
VDEQSLNR | 0.62 ± 0.41
VWTES | 1.83 ± 0.25
IVCWTMVVDLIVDQMLTAYR | 1.03 ± 0.28
YSRGWVHVI | 0.384 ± 0.56
SFCYLLSTISVTIALVKTRG | -0.271 ± 0.5
VWVPQSVIRSLHLPSN | -1.01 ± 1.1
PKQDTA | -0.967 ± 0.36
YILLWVYIHDGLAWSTLLDW | 0.757 ± 0.6
NRRYLKPSGPEEGWMMLSGT | 1.03 ± 0.35
TCNSSGPMMRCLIHWETRHR | 5.17 ± 0.093
VVDTGFQRTGKSWIINDRGM | 0.253 ± 0.14
GFDLAWSWIPFSRWFALLVN | -0.486 ± 0.56
DDNVLYCYSYVVHESLSAAQ | 0.354 ± 0.3
FLSYFCIIFSTNLKLSSK | 2.1 ± 0.15

Substance | amyloid nucleation score
RFYIPLSYFMSEGDRSCKFI | -0.642 ± 0.61
GVPLLLRMTCSLCRIAFQE | 4.28 ± 0.069
SGFFAVGILITTLPLRGNER | 0.22 ± 0.45
FRFSNR | 0.389 ± 0.56
LYPWRMTCYK | -1.34 ± 0.76
YEPSATEPRLRRFHGEARLL | 0.32 ± 0.65
YIPNDCTTRDCLTYMMSWMF | -0.077 ± 0.63
WVWRIRDCLIVSSTPTGMRV | 0.806 ± 0.27
SFDCKVMVFCAMRYNLRIMS | -1 ± 0.5
ILFIIWGHLRYVRIVSYVGY | -1.48 ± 0.62
MVINSAWVCENGLSQYFLAK | 4.27 ± 0.075
QTYIFFICLVVGMYIVCGKH | -0.17 ± 0.45
FPTFFCLAIIWKYMFLLIKF | -0.238 ± 1.1
MNLWVMAFR | 6.502 ± 0.065
VVDTMNFNYCVVCSLRSVWQ | 10.5 ± 0.058
MIMEQSNNISNCLFVMQGPK | 7.143 ± 0.07
FDYAQRWSQP | 0.121 ± 0.49
CPVLG | 1.87 ± 0.32
VIAFYVAFFNRTRVSYRSLW | 4.22 ± 0.06
